This data set deals with MS2 coat protein. Description: apparent KD of MS2 coat protein; designed switch direction (-1 OFF switch, 1 ON switch): 1; higher = weaker reporter binding. As to conditions: Eterna round: R98. Here is the method:
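RNA-MaP: designed FMN/MS2 RNA switches (84 nt design region) are transcribed on-chip within common flanks and titrated with SNAP-549-labelled MS2 coat protein (about 1-3000 nM) in 100 mM Tris pH 7.5, 80 mM KCl, 4 mM MgCl2, without or with 200 uM FMN. Median apparent KD per design; activation ratio = KD,OFF / KD,ON.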

On to “CCGGAAACGGGUAGCUGACAUGAGGAUCACCCAUGUGAAUCUGAGGAUAUGGAUGGUAAUUCCAUCCAGAAGGCAGUCAGCUAC [Mat - Same State NG 3 - JL Mod - D82]”, for which the “apparent KD of MS2 coat protein” value is, setting by setting: (input ligand: FMN 200 uM) 59.1 nM; (input ligand: none) 551 nM.
The like results for “GCCAUCGCAUGAGGAUAUGGACAGCUUUGCUGUCCAGAAGGCAUGUCAUAAGACAUGAGGAUCACCCAUGUAGUUAAGAUGGCA [Mat - Same State NG 1 - JL Mod - D15]” were, in that order, 74.1 nM and 1070 nM.
Take “CCUACCAACACAGGAUAUGCUAUCCUUUGGGUAGCAGAAGGGUGAAACAUGAGGAUCACCCAUGUGGUGGGACCCGGUGACGGG [Mat - Same State NG 1 - Eli mod - D70]”: the “apparent KD of MS2 coat protein” value reads like this: (input ligand: FMN 200 uM) 116 nM; (input ligand: none) 1010 nM.
With “UGCACAUGAGGAUCACCCAUGUAUUGUUCGGUUUAUAGUAGUGAGGAUAUGCAAAGUAUAAGGAAGCAGAAGGCACAGGAUUCA [JR_SSNG3_Sub045]”, the “apparent KD of MS2 coat protein” value was 19.5 nM (input ligand: FMN 200 uM) and 26.3 nM (input ligand: none).
The like results for “GGACAUCCCACAGGAUAUGCUGGACUUUGUCCAGCAGAAGGGUGACAUGAGGAUCACCCAUGUAAUAGGAUGUCCAUAUUUAAU [Denovo 38]” were, in that order, 79.3 nM and 536 nM.
As to “CAUAGGUGUACAUGAGGAUCACCCAUGUCCCUGGUCAUUGGACAGGAUAUAUGGGCGGUCGCUUCAUAGAAGGGUUAAAUGGGA [Orenatis]”, the “apparent KD of MS2 coat protein” value is, setting by setting: (input ligand: FMN 200 uM) 224 nM; (input ligand: none) 66.6 nM.
“GGCGAUCAGGCUAACAUGAGGAUCACCCAUGUGGACUCAUGGUAGGAUAUGCUGUACAAAGUACAGCAGAAGGGCCGGAGAGCC [Mat - Same State NG 3 - JL Mod - D2]”: the “apparent KD of MS2 coat protein” value (input ligand: FMN 200 uM) was 144 nM and the “apparent KD of MS2 coat protein” value (input ligand: none) turned out to be 152 nM.
Regarding “GCACUCAAGUUAGGAUAUGGAUCGGAAAACGAUCCAGAAGGAACAUGGGAACAUGAGGAUCACCCAUGUUCCAGAAACGAGUGC [SameSame 1 - Jieux - Same State NG 1]”, the “apparent KD of MS2 coat protein” value (input ligand: FMN 200 uM) came out at 188 nM and the “apparent KD of MS2 coat protein” value (input ligand: none) amounted to 733 nM.
As to “GUCGAAUUCUUAGGAUAUCGAGUGGAUAACACUCGAGAAGGAAGAUAUACCUGAGGAUCACCCAGGUUAAACUGAACGACAAUA [Same State NG1 - A3C, U17G Submission 7D]”, the “apparent KD of MS2 coat protein” value (input ligand: FMN 200 uM) came out at 17.5 nM and the “apparent KD of MS2 coat protein” value (input ligand: none) turned out to be 18.5 nM.
On to “AUUAAUGGGUGAGGAUAUGCACAGGAUCACCGUGUAGAAGGCAUCAGGUAGAAGGUGCAGAGGAUCACCCUGUAAGGAUAUAUC [pwkr2 ssNG1 DX.13]”, for which the “apparent KD of MS2 coat protein” value (input ligand: FMN 200 uM) amounted to 858 nM and the “apparent KD of MS2 coat protein” value (input ligand: none) worked out at 998 nM.
In the case of “AUAGCAUACCGAGGAUAUUCAUAUAAUAAAUAAACAUGAGGAUCACCCAUGUGGCGAAAGCCUAGGGAGAAGGCGGAAUGCUAG [salish99_SSNG2_r2_101]”, the “apparent KD of MS2 coat protein” value was 29.9 nM (input ligand: FMN 200 uM) and 237 nM (input ligand: none).
Regarding “GUAGCAUACCGAGGAUAUUCAGAGAAUAAAUAAACAUGAGGAUCACCCAUGUGGCGAAAGCCUAGGGAGAAGGCGGAAUGCUAC [salish99_SSNG2_r2_208]”, the “apparent KD of MS2 coat protein” value turned out to be 25.3 nM (input ligand: FMN 200 uM) and 81.9 nM (input ligand: none).
With “GUAGCAUACCGAGGAUAUUCAUAUAAUAAAUAAACAUGAGGAUCACCCAUGUGGCGAAAGCCUAGGGAGAAGGCGGAAUGCUAA [salish99_SSNG2_r2_113]”, the “apparent KD of MS2 coat protein” value is, setting by setting: (input ligand: FMN 200 uM) 23.6 nM; (input ligand: none) 201 nM.
The matching figures for “GCCAUCGCAUGAGGAUAUGGCACCGUUUCGGUGCCAGAAGGCAUGUCUCUAGACAUGAGGAUCACCCAUGUAGUUAAGAUGGCA [Pyrimidine booster 2]”: 50.4 nM and 589 nM.
With “CAUGAAGGGUGAGGAUAUGCACAGGAUCACCGUGUAGAAGGCAUCAGGUAGAAGGUGCAGAGGAUCACCCUGUAAGGAUAUAUC [pwkr2 ssNG1 DX.16]”, the “apparent KD of MS2 coat protein” value runs as follows: (input ligand: FMN 200 uM) 482 nM; (input ligand: none) 1310 nM.
As to “GCCACAUGAGGAUCACCCAUGUACGGUUCCGUCUCAUUAGUGCAGGAUAUGUUCACCGGAAGUGUGCAGAAGGGUAAAAGUGGG [Onar]”, the “apparent KD of MS2 coat protein” value reads like this: (input ligand: FMN 200 uM) 209 nM; (input ligand: none) 88.2 nM.
“CCAGAGAUAUGAGGAUAUCGAGUGGAUAACACUCGAGAAGGCAUGUGAAAACAUGAGGAUCACCCAUGUGAUCAAUACUCUGGA [Same State NG1 - WT Aptamer 2D]”: the “apparent KD of MS2 coat protein” value is, setting by setting: (input ligand: FMN 200 uM) 27.4 nM; (input ligand: none) 170 nM.
“GCACUCAAGUUAGGAUAUGGAUCGGAAACCGAUCCAGAAGGAACACAAUAACAUGAGCAUCAGCCGUGUUCCAGAAACGAGUGC [SameSame 15 - Jieux - Same State NG 1]”: the “apparent KD of MS2 coat protein” value (input ligand: FMN 200 uM) was determined as 126 nM.
With “CCGUGACACGAAGGAUAUGUGGGUGGUAGUCUGUGCUCCGCCUACAUGAGGAUCACCCAUGUAUCACAGAAGGUCGGACGUCAA [Zaaerzaza]”, the “apparent KD of MS2 coat protein” value by setting is: (input ligand: FMN 200 uM) 71.2 nM; (input ligand: none) 51.3 nM.
